Test results taken from PMC6468249.
Read-outs that look alike come from different tables or passages of the source.

T1: mtSSB (Homo sapiens, UniProt Q04837 15-148)
T1 sequence: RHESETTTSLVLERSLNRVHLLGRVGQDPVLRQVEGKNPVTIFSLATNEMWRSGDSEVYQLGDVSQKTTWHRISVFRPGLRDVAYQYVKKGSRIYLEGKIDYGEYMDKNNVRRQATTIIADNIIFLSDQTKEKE


Experiments:
[1] = target: T1, mtSSB; assay: EMSA
[2] = target: T1, mtSSB; assay: EMSA; remark: listed apart in the source

Row | Binder | binding result [1] | binding result [2]
1 | AGAACCUGUUGAACAAAAGC (ssRNA) [20 nt RNA probe] | binds | 
2 | AGAACCTGTTGAACAAAAGC (ssDNA) [20 nt ssDNA probe] |  | binds
